Assay [1] concerns the target oxytocin ion channel-coupled receptor with the T4 phage lysozyme domain, OXTR(T4L) fused to Kir6.2 (not stated | T4 phage) (UniProt P30559).
For assay [2] the target is unchanged. This is another data set of the same source.

Chain of oxytocin (P01178 whole entry, looked up, the tested form may be a part): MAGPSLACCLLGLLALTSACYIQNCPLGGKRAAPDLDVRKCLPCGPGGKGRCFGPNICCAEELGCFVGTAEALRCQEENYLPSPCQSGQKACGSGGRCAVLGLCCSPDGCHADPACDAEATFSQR
Chain of UniProt P30559 (P30559 whole entry, looked up, the tested form may be a part): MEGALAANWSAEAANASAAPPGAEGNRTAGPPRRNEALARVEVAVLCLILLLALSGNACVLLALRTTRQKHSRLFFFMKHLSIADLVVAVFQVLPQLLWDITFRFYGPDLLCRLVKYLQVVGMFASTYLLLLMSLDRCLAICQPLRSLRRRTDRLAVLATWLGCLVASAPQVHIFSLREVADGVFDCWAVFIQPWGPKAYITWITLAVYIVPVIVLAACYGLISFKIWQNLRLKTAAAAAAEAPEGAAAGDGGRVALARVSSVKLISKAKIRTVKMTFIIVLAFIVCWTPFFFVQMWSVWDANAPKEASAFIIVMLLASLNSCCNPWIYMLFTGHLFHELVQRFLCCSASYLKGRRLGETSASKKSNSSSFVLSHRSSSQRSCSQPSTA

In assay [1], “oxytocin (from UniProt P01178 20-28) (peptide)” gave an ICCR activation by 1 μM oxytocin, TEVC, after cholesterol depletion and repletion with cholesterol (% of the control before incubation) of 70; an ICCR activation by 1 μM oxytocin, TEVC, after cholesterol depletion and repletion with cholesteryl hemi-succinate (CHS) (% of the control level before incubation) of 45. For the same substance, in assay [2], the amplitude of ICCR activation by 1 μM oxytocin, TEVC, after co-incubation with 20 mM MβCD and 5 μM oxytocin for at least 3 h and washing (% of the basal current) was found to be 100; the amplitude of ICCR activation by 1 μM oxytocin, TEVC, control without MβCD (Buffer + 5 μM oxytocin, at least 3 h) (% of the basal current) was 120.

The values above are taken from article PMC8050779.
